{
  "source": "patent US20250296984A1",
  "about": "“THERAPEUTIC AND DIAGNOSTIC AGENTS AND USES THEREOF” (priority 2022, published 2025)",
  "molecules": {"B1": {"name": "13-5G6-1D3 rAb: recombinant antibody product of US28-13-5G6-1D3 produced in HEK293-F cells (antibody)", "heavy": "EVKLVESGGGLVQPGGSLRLACATSGFTFTDYYMSWVRQPPGKALEWLGFIRSKANGYTTEYSASVKGRFTISRDNSQSILYLQMNTLRSEDSATYYCARDERRTAWLAYWGQGTLVTVSAAKTTPPSVYPLAPGSAAQTNSMVTLGCLVKGYFPEPVTVTWNSGSLSSGVHTFPAVLQSDLYTLSSSVTVPSSTWPSETVTCNVAHPASSTKVDKKIVPRDCGCKPCICTVPEVSSVFIFPPKPKDVLTITLTPKVTCVVVDISKDDPEVQFSWFVDDVEVHTAQTQPREEQFNSTFRSVSELPIMHQDWLNGKEFKCRVNSAAFPAPIEKTISKTKGRPKAPQVYTIPPPKEQMAKDKVSLTCMITDFFPEDITVEWQWNGQPAENYKNTQPIMDTDGSYFIYSKLNVQKSNWEAGNTFTCSVLHEGLHNHHTEKSLSHSPGK", "light": "DVLMTQTPLSLPVSLGDQASISCRSSQSIVHSNGNTYLDWYLQKPGQSPKLLIYKVSNRFSGVPDRFSGSGSGTDFTLKISRVEAEDLGVYYCFQGSHVPTWTFGGGTKLEIKRADAAPTVSIFPPSSEQLTSGGASVVCFLNNFYPKDINVKWKIDGSERQNGVLNSWTDQDSKDSTYSMSSTLTLTKDEYERHNSYTCEATHKTSTSPIVKSFNRNEC"}, "B2": {"name": "7B1F3: mouse IgG1 kappa antibody against US28 ECD1 Peptide-N; VH SEQ ID NO: 211, VL SEQ ID NO: 213 (antibody, V domains shown)", "VH": "EVQLQQSGAELAKPGASVKMSCKASGYTFTNYWMHWVKQRPGQGLEWIGYVNPRTGYTEYNQKFKDKATLTADKSSRTAYMQLSSLTSEDSAVYSCARILNGTGFAYWGQGTLVTVSA", "VL": "DIVLTQSPSSLTVSVGEKFTMSCKSSQSLLYSSNQKNYLAWYQQKPGQSPKLLIYWASTRESGVPDRFTGSGSGTDFTLAISSVKPEDLAIYYCQQYYSFPLTFGAGTKLEIK", "modifications": "Mature form of VH sequence of 7B1F3, without the leader sequence; Mature form of VL sequence of 7B1F3, without the leader sequence"}},
  "key": {"[1]": {"test_system": "US28 negative CHO control cells", "assay": "Flow cytometry off-target binding to US28 negative control CHO cells", "set-up": "species or system Chinese Hamster", "details": "1:10 dilution (w/v), after removing binding to blank and secondary Ab controls", "excerpt": "FIG. 4. The positive surface binding of the clone US28-13-5G6-1D3 on CHO-US28-A1 cells was compared with the US28 negative CHO control cells. The clone US28-13-5G6-1D3 Ab bound 15-fold more to the surface of the US28 positive CHO-US28-A1 cells than to the US28 negative CHO cells in 1:50 (w/v).\nFIG. 7. Surface binding of 13-5G6-1D3 rAb on CHO-US28-A1 cells, and on respective control CHO cells were validated by using FACS analysis. The bars showing results for CHO cells are colored with dark grey whereas the bars showing results for CHO-US28-A1 cells are colored with pale grey color. […] The surface binding of the 13-5G6-1D3 rAb to CHO cells was only measured in 1:10 dilution (w/v) and was 0.77% after removing the binding to blank and anti-mouse IgG-Alexa 488 secondary Ab controls.\nFIG. 22. Percentage off-target binding of various ECD3-binding molecules of the invention (A) or various SEQ ID NO: 177-binding molecules of the invention (B), in comparison with VUN100, as assessed by binding to control CHO cells.\nIn a further embodiment, it is preferred that a binding molecule of the present invention binds preferentially to US28-expressing cells (such as CHO cells engineered to express US28) compared to its binding of US28-negative cells (such as wildtype CHO cells), for example, at a 1:50 (w/v) dilution, for example as determined by flow cytometry assay. […]"}, "[2]": {"molecular_target": "Peptide 3 ([…]) (Human cytomegalovirus, UniProt P69332)", "assay": "HuProt Human Proteome Microarray, control peptide", "format": "binding, HCMV", "excerpt": "The HuProt™ Human Proteome Microarray provides the largest number of unique, full-length, individually purified human proteins on a single microscope slide. It provides >21,000 unique human proteins, isoform variants, and protein fragments—covering 16,794 unique genes. This includes 15,889 of the 19,613 canonical human proteins described in the Human Protein Atlas, with broad coverage across protein subclasses. This allows thousands of interactions to be profiled in a high-throughput manner. The full-length recombinant proteins are expressed in the yeast S. cerevisiae, purified, and printed on glass slides in duplicate along with a set of control proteins (GST, BSA, histones, IgG, etc.). The full list of the different proteins included in the HuProt™ Human Proteome Microarray as used in this Example is provided as “List B” in the Research Disclosures publication (ISSN 0374-4353, Questel Ireland Ltd) with database numbers 707018, 707019 and 707020, each entitled “Large scale protein arrange target protein identities” and each digitally published on 27 Jan. 2023, the contents of each of which are incorporated herein by reference in their entirety, fo the purposes of the disclosure of the proteins defined by “List B”. “List B” begins in Research Disclosures publication 707018, is continued in Research Disclosures publication 707019, and concludes Research Disclosures publications 707020, and so the three publications are to be read consecutively as a single disclosure of the “List B” proteins. The HuProt™ microarray is not restricted to a particular type of surface coating, although the default is glass coated with ultrathin nitrocellulose film for the non-covalent, yet irreversible, capture of active proteins to the surface.\nSamples of humanised 7B1F3 and mouse 7B1F3 antibodies were analysed for binding specificities on HuProt™ human proteome arrays. A peptide with the sequence TDVLNQSKPVTL (“Peptide 3”) was added to the arrays at 0.1 mg/ml as a control.\nAfter blocking, the arrays were probed with the antibody samples (0.1 μg/ml) at room temperature for 1 hour. Then the arrays were washed with TBST for 10 min×3 and probed with Alexa647-anti-human IgG Fc or Alexa647-anti-mouse IgG secondary antibodies under conditions optimized by CDI Labs for signal detection.\n• Non-specific hits that directly bind to the secondary antibodies were eliminated from the analysis of the samples. • CDI software was used to quantify the specificity of each individual sample to specific proteins on the array based on Z Scores. • Z score is the average Z score of the duplicate spots of a given protein (each protein is printed in duplicate on a HuProt™ array). The Z score of each spot on a given array is calculated according to the algorithm below:\nZ=[F635−F635(avg)]/F635(std) • F635(avg) and F635(std) are the average and standard deviation of the F635 values of all spots on the array, respectively. • S score is the difference of the Z Scores of a given protein and the one ranked next to it. If the S score of the top hit is >3, the antibody is considered to be highly specific for the top hit. • F635 is the average foreground signal intensity of 2 replicate spots of a given protein in the detection channel (635 nm). • B635 is the average background signal intensity of 2 replicate spots of a given protein in the detection channel (635 nm)."}, "[3]": {"details": "Table 9, top hit Peptide 3, antibody 0.1 μg/ml"}},
  "data": [
    {"molecule": "B1", "values": [
      {"measurement": "surface binding to CHO cells, percent of cells", "setting": "[1]", "result": 0.77, "unit": "%"}
    ]},
    {"molecule": "B2", "values": [
      {"measurement": "S Score", "setting": "[2]; Protein: Peptide 3", "result": 116.095},
      {"measurement": "Z Score", "setting": "[2]; Protein: Peptide 3", "result": 145.092},
      {"measurement": "F635", "setting": "[2]; Protein: Peptide 3, antibody 0.1 μg/ml", "result": 49972},
      {"measurement": "Peptide 3 Signal", "setting": "[2]; Table 9, antibody 0.1 μg/ml", "result": 49972},
      {"measurement": "Top Hit", "setting": "[2]; Table 9, antibody 0.1 μg/ml", "result": "Peptide 3"},
      {"measurement": "S Score", "setting": "[2]; [3]", "result": 116.095},
      {"measurement": "Z Score", "setting": "[2]; [3]", "result": 145.092},
      {"measurement": "Signal", "setting": "[2]; Table 9, top hit, 65535 is the saturation signal intensity", "result": 49972}
    ]}
  ]
}
